# Test results: the supplement of paper PMC10567573
# B1: ZNF649 (parent)
# chain: EHERAHRGEKPHGCSLCGKAFYKR
# Variants of: B1
# Experiment: protein stability index of a GFP-peptide fusion (GPS, HEK-293T) (PSI 1-6); higher = more stable
# Details: c terminus: a fixed tail appended
# 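Note: lentivirally expressed fusions sorted by FACS into six bins by GFP to DsRed ratio, PSI derived from sequencing read proportions per bin multiplied by bin number.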
row,Variant,protein stability index
1,EHEPAHRGEKPHGCSLCGKAFYKR,2.6
2,EHEWAHRGEKPHGCSLCGKAFYKR,1.88
3,EHEAAHRGEKPHGCSLCGKAFYKR,1.97
4,EHEQAHRGEKPHGCSLCGKAFYKR,1.59
5,EHETAHRGEKPHGCSLCGKAFYKR,1.95
6,EHEVAHRGEKPHGCSLCGKAFYKR,2.93
7,EHERAHRGEKPHGHSLCGKAFYKR,4.25
8,EHERAHRGEKPHGPSLCGKAFYKR,3.12
9,EHERAHRGEKPHGVSLCGKAFYKR,4.78
10,EHERAHRGEKPHGFSLCGKAFYKR,2.69
11,EHERAHRGEKPHGNSLCGKAFYKR,4.12
12,EHERAHRGEKPHGTSLCGKAFYKR,3.91
13,EHERAHRGEKPHGASLCGKAFYKR,4.66
14,EHERAHRGEKPHGYSLCGKAFYKR,3.56
15,EHERAHRGEKPHGRSLCGKAFYKR,3.73
16,EHERAHRGEKPHGDSLCGKAFYKR,4.54
17,EHERAHRGEKPHGISLCGKAFYKR,4.24
18,EHERAHRGEKPHGKSLCGKAFYKR,4.59
19,EHERAHRGEKPHGLSLCGKAFYKR,3.94
20,EHERAHRGEKPHGSSLCGKAFYKR,4.83
21,EHERAHRGEKPHGGSLCGKAFYKR,4.18
22,EHERAHRGEKPAGCSLCGKAFYKR,2.74
23,EHERAHRGEKPSGCSLCGKAFYKR,1.32
24,EHERAHRGEKPFGCSLCGKAFYKR,3.39

row,Variant,protein stability index
1,EHERAHRGEKPCGCSLCGKAFYKR,1.46
2,EHERAHRGEKPQGCSLCGKAFYKR,2.18
3,EHERAHRGEKPIGCSLCGKAFYKR,4.08
4,EHERAHRGEKPEGCSLCGKAFYKR,2
5,EHERAHRGEKPPGCSLCGKAFYKR,1.7
6,EHERAHRGEKPRGCSLCGKAFYKR,1.66
7,EHERAHRGEKPNGCSLCGKAFYKR,1.47
8,EHERAHRGEKPKGCSLCGKAFYKR,2.49
9,EHERAHRGEKPMGCSLCGKAFYKR,3.47
10,EHERAHRGEKPWGCSLCGKAFYKR,1.64
11,EHERAHRGEKPGGCSLCGKAFYKR,1.89
12,EHERAHRGYKPHGCSLCGKAFYKR,2.19
13,EHERAHRGRKPHGCSLCGKAFYKR,3.66
14,EHERAHRGVKPHGCSLCGKAFYKR,1.42
15,EHERAHRGSKPHGCSLCGKAFYKR,1.72
16,EHERAHRGTKPHGCSLCGKAFYKR,1.81
17,EHERAHRGAKPHGCSLCGKAFYKR,2.28
18,EHERAHRGCKPHGCSLCGKAFYKR,3.6
19,EHERAHRGHKPHGCSLCGKAFYKR,2.13
20,EHERAHRGNKPHGCSLCGKAFYKR,1.85
21,EHERAHRGIKPHGCSLCGKAFYKR,1.86
22,EHERAHRGLKPHGCSLCGKAFYKR,2.16
23,EHERAHRGMKPHGCSLCGKAFYKR,2.08
24,EHERAHRGFKPHGCSLCGKAFYKR,2.21

row,Variant,protein stability index
1,EHERAHRGWKPHGCSLCGKAFYKR,1.59
2,EHERAHRGEKCHGCSLCGKAFYKR,2.51
3,EHERAHRGEKVHGCSLCGKAFYKR,1.79
4,EHERAHRGEKAHGCSLCGKAFYKR,2.08
5,EHERAHRGEKNHGCSLCGKAFYKR,2.33
6,EHERAHRGEKRHGCSLCGKAFYKR,1.45
7,EHERAHRGEKTHGCSLCGKAFYKR,2.54
8,EHERAHRGEKEHGCSLCGKAFYKR,3.19
9,EHERAHRGEKMHGCSLCGKAFYKR,2.31
10,EHERAHRGEKYHGCSLCGKAFYKR,2.01
11,EHERAHRGEKGHGCSLCGKAFYKR,1.55
12,EHERAHRGEKHHGCSLCGKAFYKR,2.41
13,EHERAHRGEKWHGCSLCGKAFYKR,1.9
14,EHERAHRGEKPHGCGLCGKAFYKR,1.56
15,EHERAHRGEKPHGCMLCGKAFYKR,1.93
16,EHERAHRGEKPHGCNLCGKAFYKR,2.39
17,EHERAHRGEKPHGCELCGKAFYKR,2.21
18,EHERAHRGEKPHGCRLCGKAFYKR,2.23
19,EHERAHRGEKPHGCHLCGKAFYKR,5.95
20,EHERAHRGEKPHGCKLCGKAFYKR,3.12
21,EHERAHRGEKPHGCVLCGKAFYKR,1.67
22,EHERAHRGEKPHGCPLCGKAFYKR,4.16
23,EHERAHRGEKPHGCQLCGKAFYKR,1.41
24,EHERAHRGEKPHGCLLCGKAFYKR,2.27

row,Variant,protein stability index
1,EHERAHRGEKPHGCILCGKAFYKR,2.01
2,EHERAHRGEKPHGCWLCGKAFYKR,1.72
3,EHERAHRGEKPHGCDLCGKAFYKR,3.14
4,EHERAHRGEKPHGCYLCGKAFYKR,2.48
5,EHERAHRGEKPHGCALCGKAFYKR,1.84
6,EHERVHRGEKPHGCSLCGKAFYKR,1.62
7,EHERGHRGEKPHGCSLCGKAFYKR,1.52
8,EHEREHRGEKPHGCSLCGKAFYKR,1.83
9,EHERFHRGEKPHGCSLCGKAFYKR,2.8
10,EHERNHRGEKPHGCSLCGKAFYKR,2.18
11,EHERLHRGEKPHGCSLCGKAFYKR,2.24
12,EHERYHRGEKPHGCSLCGKAFYKR,2.58
13,EHERCHRGEKPHGCSLCGKAFYKR,2.8
14,EHERQHRGEKPHGCSLCGKAFYKR,2.42
15,EHERWHRGEKPHGCSLCGKAFYKR,1.62
16,EHERSHRGEKPHGCSLCGKAFYKR,1.09
17,EHERTHRGEKPHGCSLCGKAFYKR,3.23
18,EHERKHRGEKPHGCSLCGKAFYKR,1.74
19,EHERHHRGEKPHGCSLCGKAFYKR,2.23
20,EHERRHRGEKPHGCSLCGKAFYKR,2.76
21,EHERDHRGEKPHGCSLCGKAFYKR,1.88
22,EHERIHRGEKPHGCSLCGKAFYKR,1.34
